Reference: US20190270826A1 (Janssen / Centocor, published 2019)
Positions count from the first letter of the chain named. Numbers in names are those of the source.

Tests used:
[1] = molecular target: T1, cyno IL1RAP ECD displayed on HEK-293F cells (pDisplay) (cynomolgus monkey, UniProt P59822 21-367 (rhesus entry)); assay: MSD cell binding, HEK-293F Cyno (clone CB8) cells displaying cyno IL1RAP ECD
T1 sequence: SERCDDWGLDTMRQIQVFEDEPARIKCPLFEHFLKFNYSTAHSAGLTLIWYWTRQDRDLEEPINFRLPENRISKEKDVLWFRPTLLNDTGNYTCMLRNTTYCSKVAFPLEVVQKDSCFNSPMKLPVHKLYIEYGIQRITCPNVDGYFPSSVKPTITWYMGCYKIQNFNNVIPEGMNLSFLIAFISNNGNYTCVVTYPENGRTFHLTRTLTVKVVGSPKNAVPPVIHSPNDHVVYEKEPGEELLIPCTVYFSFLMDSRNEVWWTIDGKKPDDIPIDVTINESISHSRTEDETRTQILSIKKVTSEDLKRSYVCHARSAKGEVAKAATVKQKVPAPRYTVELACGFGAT
Protocol: (§1) Cells were immobilized and IL1RAP antibody samples were assayed in triplicate. Briefly, expression supernatants of purified IL1RAP antibodies were normalized to 10 μg/mL. 5000 cells per well were plated into a 384 well plate (MA6000, cat. L21XB, MSD) and allowed to adhere for 2 hr. Cells were then blocked with 20% FBS in PBS (Gibco) for 15 mins. Antibody supernatants were then added and left at RT for 1 hr. Cells were washed 3 times with PBS and a ruthenium labeled secondary antibody (Mesoscale Discovery) was then added at 2 μg/mL and incubated for 1 hour at room temperature. A further washing step was then applied and 35 μL per well of 2×MSD Read buffer T (surfactant free) was then added and incubated for 5-30 minutes for detection. Plates were then read using Sector Imager 2400 (MSD). Data was normalized to controls and graphed using GraphPad Prism Version 5. A positive binder was determined to be a hit with a signal 3× greater than parental cell line background.
(§2) The MSD cell binding assay described in Example 4 was used to assess IL1RAP binding.

[2] = molecular target: T2, mouse IL1RAP ECD displayed on HEK-293F cells (pDisplay) (mouse, UniProt Q61730 21-367); assay: MSD cell binding, HEK-293F Mouse clone 5 cells displaying mouse IL1RAP ECD
T2 sequence: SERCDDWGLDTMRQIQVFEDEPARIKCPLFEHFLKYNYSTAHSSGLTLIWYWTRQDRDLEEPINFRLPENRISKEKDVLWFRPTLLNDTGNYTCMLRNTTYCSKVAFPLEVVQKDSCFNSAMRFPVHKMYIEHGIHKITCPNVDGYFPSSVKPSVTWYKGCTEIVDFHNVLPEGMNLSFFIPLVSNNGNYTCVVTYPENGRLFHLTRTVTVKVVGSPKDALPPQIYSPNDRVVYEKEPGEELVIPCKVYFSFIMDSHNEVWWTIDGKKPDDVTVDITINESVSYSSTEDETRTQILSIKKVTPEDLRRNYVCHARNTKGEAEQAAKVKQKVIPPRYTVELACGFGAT
Protocol: as §1, §2

human FcRn = molecular target: T3, human FcRn (human, UniProt P55899 24-297; P61769 21-119, limits assumed); assay: AlphaScreen competition, human FcRn (n=1); displaced: biotinylated control mAb B21M WT IgG1 (m27); pH 6.0
T3 construct: GST-tagged
Excerpt: (§3) Measurements were made using an AlphaScreen™ assay (Amplified Luminescent Proximity Homogeneous Assay (ALPHA), PerkinElmer, Wellesley, Mass.), a bead-based luminescent proximity assay. Laser excitation of a donor bead excites oxygen, which if sufficiently close to the acceptor bead generates a cascade of chemiluminescent events, ultimately leading to fluorescence emission at 520-620 nm.

[3] = molecular target: T4, rat IL1RAP ECD displayed on HEK-293F cells (pDisplay) (rat, UniProt Q63621 21-367); assay: MSD cell binding, HEK-293F Rat clone 1 cells displaying rat IL1RAP ECD
T4 sequence: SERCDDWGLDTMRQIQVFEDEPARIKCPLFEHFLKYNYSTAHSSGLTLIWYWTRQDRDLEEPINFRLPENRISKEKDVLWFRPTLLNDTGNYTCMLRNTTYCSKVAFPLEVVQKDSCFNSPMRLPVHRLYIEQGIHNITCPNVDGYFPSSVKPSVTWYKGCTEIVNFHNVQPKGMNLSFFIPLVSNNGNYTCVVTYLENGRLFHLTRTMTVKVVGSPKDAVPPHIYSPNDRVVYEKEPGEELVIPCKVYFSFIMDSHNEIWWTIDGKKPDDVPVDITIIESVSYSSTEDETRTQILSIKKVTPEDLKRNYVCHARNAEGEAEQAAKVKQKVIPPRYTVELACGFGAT
Protocol: as §1, §2

[4] = molecular target: T5, human IL1RAP on cells (endogenous) (human, UniProt Q9NPH3 21-570); assay: cell-based or functional assay
T5 sequence (looked up): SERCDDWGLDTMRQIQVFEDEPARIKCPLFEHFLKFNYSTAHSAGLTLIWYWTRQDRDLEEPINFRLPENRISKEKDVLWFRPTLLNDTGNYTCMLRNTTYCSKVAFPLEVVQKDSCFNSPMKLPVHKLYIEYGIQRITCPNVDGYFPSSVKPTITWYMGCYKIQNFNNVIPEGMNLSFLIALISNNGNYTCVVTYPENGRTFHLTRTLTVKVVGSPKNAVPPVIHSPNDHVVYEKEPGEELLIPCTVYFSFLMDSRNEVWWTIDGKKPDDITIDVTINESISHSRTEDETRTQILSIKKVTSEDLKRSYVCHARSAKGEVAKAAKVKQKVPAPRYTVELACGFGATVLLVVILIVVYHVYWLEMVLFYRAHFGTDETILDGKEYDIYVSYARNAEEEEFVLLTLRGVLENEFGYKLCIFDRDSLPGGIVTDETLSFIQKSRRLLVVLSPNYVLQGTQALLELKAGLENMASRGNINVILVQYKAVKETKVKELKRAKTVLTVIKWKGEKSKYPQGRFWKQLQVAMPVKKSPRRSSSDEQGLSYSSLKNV

[5] = molecular target: T6, human IL1RAP ECD displayed on HEK-293F cells (pDisplay) (human, UniProt Q9NPH3 21-367); assay: MSD cell binding, HEK-293F Human (clone HE2) cells displaying human IL1RAP ECD
T6 construct: also called Human clone HE2 IL1RAP FL-ECD cell line
T6 sequence: T1 sequence with F183L, P273T, T326K
Protocol: as §1, §2

human FcγRI = molecular target: T7, human FcγRI (human, UniProt P12314 16-292, limits assumed); assay: AlphaScreen competition, human FcγRI (n=1); displaced: biotinylated control mAb B21M hIgG1 AlaAla; pH 7.2
T7 construct: GST-tagged, on glutathione acceptor beads; also called FcγRT [sic]
Excerpt: as §3

[6] = molecular target: T8, recombinant human IL1RAP ECD (human, UniProt Q9NPH3 21-367); assay: SPR (ProteOn)
T8 construct: His-tagged; also called hIL1RAP-ECD; rhuIL1RAP
T8 sequence: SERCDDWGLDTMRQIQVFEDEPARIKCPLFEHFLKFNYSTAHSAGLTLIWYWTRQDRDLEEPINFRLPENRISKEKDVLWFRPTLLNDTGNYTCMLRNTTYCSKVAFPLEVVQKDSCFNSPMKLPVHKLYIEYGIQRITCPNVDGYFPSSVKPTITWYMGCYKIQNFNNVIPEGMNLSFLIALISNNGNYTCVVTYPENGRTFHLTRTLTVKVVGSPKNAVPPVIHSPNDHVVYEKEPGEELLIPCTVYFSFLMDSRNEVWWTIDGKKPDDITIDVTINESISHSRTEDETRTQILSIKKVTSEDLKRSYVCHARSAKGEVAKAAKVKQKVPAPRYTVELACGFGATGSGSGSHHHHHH

[7] = molecular target: T8, recombinant human IL1RAP ECD; assay: SPR, summary
[8] = molecular target: T8, recombinant human IL1RAP ECD; assay: SPR; KD against parent IAPB4

B1: IC3B18 (bispecific antibody, human IgG4 S228P, lambda, F234A L235A)
heavy 1: EVQLVESGGGLVQPGGSLRLSCAASGFTFNTYAMNWVRQAPGKGLEWVARIRSKYNNYATYYAASVKGRFTISRDDSKNSLYLQMNSLKTEDTAVYYCARHGNFGNSYVSWFAYWGQGTLVTVSSASTKGPSVFPLAPCSRSTSESTAALGCLVKDYFPEPVTVSWNSGALTSGVHTFPAVLQSSGLYSLSSVVTVPSSSLGTKTYTCNVDHKPSNTKVDKRVESKYGPPCPPCPAPEAAGGPSVFLFPPKPKDTLMISRTPEVTCVVVDVSQEDPEVQFNWYVDGVEVHNAKTKPREEQFNSTYRVVSVLTVLHQDWLNGKEYKCKVSNKGLPSSIEKTISKAKGQPREPQVYTLPPSQEEMTKNQVSLTCLVKGFYPSDIAVEWESNGQPENNYKTTPPVLDSDGSFLLYSKLTVDKSRWQEGNVFSCSVMHEALHNHYTQKSLSLSLGK
light 1: QTVVTQEPSLTVSPGGTVTLTCRSSTGAVTTSNYANWVQQKPGQAPRGLIGGTNKRAPGTPARFSGSLLGGKAALTLSGVQPEDEAEYYCALWYSNLWVFGGGTKLTVLGQPKAAPSVTLFPPSSEELQANKATLVCLISDFYPGAVTVAWKADSSPVKAGVETTTPSKQSNNKYAASSYLSLTPEQWKSHRSYSCQVTHEGSTVEKTVAPTECS
heavy 2: not shown
light 2: QSALTQPRSVSGSPGHSVTISCTGTSSDVGDYNYVSWYQQRPGKVPKLLIYDVSKRPSGVPDRFSGSKSGNTASLTISGLQAEDEAIYFCASYAGNYNVVFGGGTKLTVLGQPKAAPSVTLFPPSSEELQANKATLVCLISDFYPGAVTVAWKADSSPVKAGVETTTPSKQSNNKYAASSYLSLTPEQWKSHRSYSCQVTHEGSTVEKTVAPTECS
notes: IgG4-PAA, Fab arm exchange; also called IAPB63 x CD3B219; IL1RAP x CD3
[1]
  EC50 (read off the curve): ~1 µg/mL
[2]
  binding result: no binding (tested: 100 µg/mL)
Human FcRn
  IC50 (read off the curve): ~200 nM
[3]
  binding result: no binding (tested: 100 µg/mL)
[4]
  Average EC50, SKNO-1 cytotoxicity in whole blood, 24 hour: 2.92 nM
  Average EC50, SKNO-1 cytotoxicity in whole blood, 48 hour: 0.804 nM
  EC50, SKNO-1 cytotoxicity in whole blood, donor 00201, 24 hour: 8.62 nM
  EC50, SKNO-1 cytotoxicity in whole blood, donor 00201, 48 hour: 0.704 nM
  EC50, SKNO-1 cytotoxicity in whole blood, donor 00263, 24 hour: 0.4 nM
  EC50, SKNO-1 cytotoxicity in whole blood, donor 00263, 48 hour: 0.58 nM
  EC50, SKNO-1 cytotoxicity in whole blood, donor 27050, 48 hour: 2.04 nM
  EC50, SKNO-1 cytotoxicity in whole blood, donor 27060, 24 hour: 2.5 nM
  EC50, SKNO-1 cytotoxicity in whole blood, donor 27060, 48 hour: 0.516 nM
  EC50, SKNO-1 cytotoxicity in whole blood, donor 27067, 24 hour: 1.11 nM
  EC50, SKNO-1 cytotoxicity in whole blood, donor 27067, 48 hour: 0.337 nM
  EC50, SKNO-1 cytotoxicity in whole blood, donor 32771, 24 hour: 1.94 nM
  EC50, SKNO-1 cytotoxicity in whole blood, donor 32782, 48 hour: 0.65 nM
[5]
  EC50 (read off the curve): ~1 µg/mL
Human FcγRI
  IC50 (read off the curve): ~90 nM

B2: IAPB65 (antibody, human IgG4 S228P, kappa, F234A L235A, V domains shown)
VH: QVQLVQSGAEVKKPGSSVKVSCKASGGTFSSYAISWVRQAPGQGLEWMGGISAIFGTANYAQKFQGRVTITADESTSTAYMELSSLRSEDTAVYYCARHLHNAIHLDYWGQGTLVTVSS
VL: EIVLTQSPATLSLSPGERATLSCRASQSVSNFLAWYQQKPGQAPRLLIYGASNRATGIPARFSGSGSGTDFTLTISSLEPEDFAVYYCQQGKHWPWTFGQGTKVEIKR
notes: IgG4-PAA; whole chains; also called IAPB4-HC-G103A; IgG4-PAA, B4 mutant
[6]
  Kd: 10.4 nM
  koff: 0.00341 s⁻¹
  kon: 329000 M⁻¹ s⁻¹
[7]
  Kd: 10.4 nM
[8]
  Fold Different from parent: 2.2 fold
